± gives the uncertainty stated by the source.

Data on 139 substances can be found in the supplement of paper PMC12042874.

This data set can be described thus: amyloid nucleation score (Sup35N fusion, yeast selection) (log enrichment); library NNK1; higher = more nucleation; inactive = no reads after selection. Put shortly: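 DiMSum was used to calculate nucleation scores as log enrichment of output over input reads, centred on the mode score of non-aggregating sequences. Sequences with fewer than 100 input reads were not scored. Input and output came from Illumina sequencing of plasmid inserts in psi-negative yeast expressing peptides of 20 random codons fused to Sup35N, induced 24 hours with 100 μM copper sulfate and then grown 7 days at 30°C on medium lacking adenine and uracil.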
LLVNFSTSRLSLYMFIMIFS showed an amyloid nucleation score of -0.779 ± 0.39.
LLWEPRKFFESNWLSIQSAK showed an amyloid nucleation score of -0.668 ± 1.7.
Under LLYLCYIRCI stands 0.952 ± 0.65; under LLYSERTIIPVDRYT, -0.686 ± 0.48; under LMDIGPANEKFN, -1.18 ± 1.4.
Take LMFKGEYCWLVIWQGLTWGV: the amyloid nucleation score is 0.278 ± 0.52.
Under LMFLGWSNRKMTSHSIMTVL stands 0.293 ± 1; under LMGNEL, -0.396 ± 0.4; under LMIRILMVAQNSVLTVFW, -0.324 ± 0.4.
LMLTARPVMFVLLCWWFRSS displayed an amyloid nucleation score of 0.246 ± 0.43.
Under LMNCVAYAIVEVTCVSCMES stands 4.68 ± 0.082; under LMRHYSHMFYIRHAVLLTNP, 0.255 ± 0.36.
Under LMSASNLNAVSKQCIRLRRC stands 1.48 ± 0.55; under LMTPEKVNEGATDRLRLFRN, -0.323 ± 0.68; under LNASGIVVCFYSSDNTCTYE, 4.49 ± 0.089.
Consider LNCLFLFSISAFRVLASHIM, for which the amyloid nucleation score amounted to 0.448 ± 0.42.
LNDGTGDQ: the amyloid nucleation score is -0.138 ± 0.37.
As to LNFFVPA, the amyloid nucleation score was -1.38 ± 2.4.
LNHLVSPKALQN showed an amyloid nucleation score of 0.017 ± 0.4.
Take LNHRIYNLLHVILWVKQWMK: the amyloid nucleation score was 0.164 ± 1.5.
LNICCEEYQDRYTTDNFLLL came in with an amyloid nucleation score of 0.583 ± 0.57.
To LNIGTW belongs 0.185 ± 0.28.
Under LNISMFHSNSSHTTEEVTHH stands 1.32 ± 0.19.
Under LNNHETFFGFVDVSGSAIS stands 0.272 ± 0.26.
As for LNNLWNLGLTGLQGGNMYKI, the amyloid nucleation score result was “inactive”.
With LNRHYFCVGIPYGPYSQRYL, the amyloid nucleation score came to 0.51 ± 0.75.
Regarding LNRSTDAFWNKIRTG, the amyloid nucleation score came out at 1.01 ± 0.49.
To LNRTRCLWL belongs 0.877 ± 0.58.
To LNSDCCPNSFDKHFLSFLCM belongs 0.433 ± 0.81; to LNSVVTVKWVLKARSLVVRC, 1.16 ± 0.88; to LNTCLFISDTAVFIMASYMV, 3.06 ± 0.45.
Under LPDCINNVQNGYSKLSEGLS stands 0.792 ± 1.
Take LPGDFYGSYRN: the amyloid nucleation score result was “inactive”.
The substance LPGFWPFMSDTPLGHQIVA returned an amyloid nucleation score of -1.07 ± 1.6.
Under LPSVESLHRTTSCVYF stands -0.561 ± 1.2; under LPVHGMFWSVR, -0.157 ± 0.78.
With LPWGRTAFENFFVTMFFSKC, the amyloid nucleation score was -0.994 ± 1.5.
Under LQLWLMDGSSRGRWV stands 0.12 ± 0.64.
To LQSTFFFYGGCKRVWSMMYH belongs 4.45 ± 0.12.
To LRAHGAYRYQWEACCHNLG belongs -0.138 ± 0.36; to LRAWMSVASDNGLLMFCRNH, -0.324 ± 0.46.
As for LRCFYEYGFHKRTKVDSIDT, the amyloid nucleation score entry is “inactive”.
For LRCKMYSMWKTSYFTVMLGG, the amyloid nucleation score is -0.261 ± 0.44.
With LRDTFPVLLAILCMNIINNC, the amyloid nucleation score is -0.14 ± 0.29.
To LRFIRRYIESHITFVRKLLK belongs “inactive”; to LRITNAPKLVYVSAQEVNSQ, 1.47 ± 0.25.
Under LRKWSERGPWP stands 0.048 ± 0.46; under LRLMLCFMFYAWTALCKPRD, 0.31 ± 0.23.
To LRRLEGLMSLGSFKFSPYGP belongs 0.227 ± 1.2; to LRSSEYWSLMEVDLVMDSLP, 0.629 ± 0.97; to LRSVSGCIKFAYGDSCMSLK, “inactive”.
Substance LRTARNMGYICSIVSFNNLN came in with an amyloid nucleation score of 5.13 ± 0.055.
Under LRVRFKSWDLSITLGVQ stands 1.26 ± 0.9; under LRWMESLRLNARSFKDTLLC, -0.33 ± 1.7.
To LSAEFGSMLRLLCH belongs “inactive”.
Under LSAWPTIEEMVPAHMKTTHA stands 0.526 ± 0.54.
For the substance LSCKSVVPLSNSWYAIVLRL, the amyloid nucleation score turned out to be 1.19 ± 0.29.
Under LSCWTCNRFYRGGLLVCMYP stands -0.713 ± 0.46.
Under LSDLDIRKQLVYMRSIRVGT stands -0.339 ± 0.94; under LSDRVFSVTTQGPCDSIFLS, -0.792 ± 0.61; under LSFNSTSPEIIRTVVMAWC, -1.54 ± 1.7.
To LSGLRNVLPLLTMYASIMKV belongs 0.688 ± 0.7; to LSHLLMRCGCIRLFVISMRE, 0.448 ± 0.49; to LSIGFGNPVAS, -0.312 ± 0.29.
As to LSIILRNVMCNIFSSNLITH, the amyloid nucleation score is 0.973 ± 0.16.
Under LSILSGWNTE stands 0.146 ± 0.32; under LSKGRATVYF, 2.06 ± 0.23.
Under LSLGLSGLVQPSDGTVG stands -0.284 ± 0.7.
Substance LSLRDLGSLALRGLKMNATR yielded an amyloid nucleation score of -0.397 ± 0.91.
To LSMRIQAQMIVAWPTKHPIL belongs 4.99 ± 0.12; to LSMSCENFHLTQSSEGCSRV, 0.19 ± 0.51; to LSNRSKNDGKSRLIPMDDVH, “inactive”.
Under LSRPVDNSCLESMRRVDWTH stands -0.444 ± 1.2; under LSRTKGKAQCLGQVGRMRVL, 0.294 ± 0.54.
Under LSRTSKSPFGGEFLERHIYI stands -0.42 ± 1; under LSSNSYQDVSVCQGFLFFVA, 3.36 ± 0.15; under LSSVNGVLGRIGHLVAPSSF, -0.066 ± 1.
For the substance LSTMRLGHYCLAYCRLGCLY, the amyloid nucleation score turned out to be 0.827 ± 0.41.
To LSVNWFGCTWQNHKEGIGRN belongs 1.79 ± 0.12.
LSVSFDVDVMVMIQVNCAIH displayed an amyloid nucleation score of 0.105 ± 0.39.
LSVVVDRVLDNCLIGLYNAG returned an amyloid nucleation score of 0.174 ± 0.28.
To LTASLTAGVTRWVLRRFVYH belongs 0.588 ± 0.77.
Under LTCEFRGTRPMMYASDPLFY stands 1.14 ± 0.76; under LTFNPLTGCNNSQWFDGISG, -1.23 ± 2.1; under LTILCWWLYEIRR, 0.556 ± 0.55.
Turning to LTLALESLEPIRLTRNMWAL, the amyloid nucleation score was -0.411 ± 0.65.
To LTLFEPLMRDCYICSYFNFF belongs 7.047 ± 0.053; to LTLFLCISRLPGTPTLYWVL, 0.752 ± 0.62; to LTLKTSNHFIYLSLLYIRVV, -0.03 ± 0.3.
To LTSGLI belongs 0.807 ± 1.
To LTYLMWRRYSNIFQTSCSCL belongs 0.499 ± 0.59; to LVAYVTRRFVLCM, -1.42 ± 1.8.
In turn, LVENLWTLRRRLVGALF displayed an amyloid nucleation score of 0.31 ± 0.4.
Under LVEVNWI stands -0.412 ± 0.47; under LVFCVLMW, 0.532 ± 0.16; under LVFFHISR, 4.94 ± 0.1.
To LVFSRYYRCLFTIDF belongs 3.62 ± 0.11; to LVFVTWLSMHVNTTGVFSLS, 0.242 ± 0.41; to LVITIDARRVAVTLIYMKMR, 2.37 ± 0.15.
To LVLGSSLWAGCCDQPHGWQV belongs -0.211 ± 0.54; to LVLHNVDELYINSSHF, 0.77 ± 0.5; to LVMFEIKLMRFNFTMRSVRR, 2.91 ± 0.13.
With LVMMTDIANWRLPCYFSNLW, the amyloid nucleation score is 0.201 ± 0.54.
To LVPVITWK belongs 4.3 ± 0.13; to LVSDSYNSLSLQDNLALLLI, 0.261 ± 0.4.
Under LVSQTYNMVARLRSSLARVN stands 0.243 ± 0.78.
Under LVVAVW stands 0.269 ± 0.35; under LVWILHVSSVNNHVDWGMLE, -1.64 ± 2.4.
As to LVWVS, the amyloid nucleation score was found to be 0.134 ± 0.65.
To LVYRCASRRVSNSFMLCW belongs -0.542 ± 0.62; to LWGRFYIYHSLFHRSHHVKL, -0.284 ± 1; to LWHEI, 0.427 ± 0.51.
As to LWLTHKCYCLDSNTCIKCEL, the amyloid nucleation score is -0.312 ± 0.38.
To LWLTPTQCMTHNFPLLTPRR belongs -0.354 ± 0.47; to LWLWHELHAIYMGMRGVSVL, “inactive”.
To LWPDTDPIGGE belongs -0.74 ± 1.1.
To LWPKVLMVFTSM belongs 1.67 ± 0.15; to LWRLEWLLSGQRGTSPAVRV, 0.764 ± 0.55; to LWSPSQ, 0.202 ± 0.56.
For LWTFGDRSVWLDDSMRWVPR, the amyloid nucleation score is -0.145 ± 1.1.
To LWVFRCARLKVWQPRKGWGQ belongs 0.844 ± 0.48; to LWVFS, 0.762 ± 0.7.
Under LWWFEYRL stands -0.016 ± 0.32.
As to LWWLHGDLLLSWGFRMLWPL, the amyloid nucleation score worked out at 0.117 ± 0.78.
Under LYAWGVRYSVVMLFSYRGVH stands -0.026 ± 1.2; under LYCRNRCRACCKRFTFK, “inactive”; under LYFVCIFPYRVRTECSEQSR, 4.32 ± 0.095.
To LYGLLAGIMSCHWLSWIACK belongs -0.96 ± 2.7; to LYGSRPYSTTKTY, -0.11 ± 0.33.
Under LYHRGVFELCS stands 0.596 ± 0.34; under LYKLWQSKFTVYWLEGLTSY, “inactive”.
In turn, LYLYM yielded an amyloid nucleation score of 0.959 ± 0.34.
Under LYTLRLGI stands -0.134 ± 0.84; under LYVDGGPCPTAELGQRSYEK, -0.17 ± 0.42.
To LYVDH belongs “inactive”; to LYVPCAIVGSLTRG, 1.06 ± 0.66.
Under LYYDSRASFPCISLEIERYV stands -0.083 ± 0.33; under MAKSGNEI, 0.062 ± 0.79.
In the case of MCASASTSKMLVWVWTPYFG, the amyloid nucleation score was 2.14 ± 0.13.
